# Reference: patent US20240076663A1, “PEPTIDE-NUCLEIC ACID COMPLEX HAVING BLOOD-BRAIN BARRIER PENETRATION ABILITY AND COMPOSITION COMPRISING SAME” (SEASUN THERAPEUTICS, INC, priority 2019, published 2024)
# Entries after “also recorded” stand apart in the source; their conditions may differ.
# Legend:
# [1] = general knowledge stated in the patent; cited from earlier work
# [2] = Blood-brain barrier permeability of the nucleic acid complex in a mouse model (cy3 fluorescence in brain tissue, confocal microscopy); type: in vivo; settings: ICR mice, 20 mg/kg caudal vein; for distribution of fluorescence expression among brain regions: 20 mg/kg
# Protocol: In order to confirm the blood-brain barrier permeability of the nucleic acid complex, 6-week-old male ICR mice (OrientBio, Korea) were purchased and acclimatized for a week, after which 20 mg/kg (n=6) of the nucleic acid complex was administered to the caudal veins thereof. In a positive control group (n=6), fluorescent-material-labeled methotrexate was administered to the caudal veins, and in a negative control group (n=6), DMSO at the same concentration as in the experimental group was diluted with saline and administered via the same route.
# The mouse model was anesthetized by intraperitoneal administration of Avertin (5 mg/kg), followed by washing and fixing of the brain tissue through perfusion with saline and 4% paraformaldehyde. The fixed brain tissue was separated and dehydrated by placing the same in 30% sugar water for 24 hours, after which an embedding process was performed using OCT. The entire region of the brain tissue was cryosectioned into 30 μm sections. In order to observe the entire brain tissue from the cerebral cortex to the brainstem, the tissues were broadly separated into a total of six regions, namely the prefrontal cortex, lateral ventricle, paraventricular nucleus, hippocampus, midbrain, and cerebellum, and mounted on slide glasses, and the nuclei were stained with DAPI for 15 minutes and then analyzed using a confocal microscope.
# Therefore, in order to determine whether the administered material spreads through the present system, the brain tissue was classified into six major regions from the front to the back and analyzed. In addition, in order to observe the extent of spreading over time, the groups were separately observed on day 1 and day 3, and the numerical values thereof were analyzed.
# Then, for all experimental groups to which the nucleic acid complex was administered, the distribution of fluorescence in tissues depending on the administration date was numerically analyzed, and the distribution of fluorescence expression in each tissue of the brain after administration of the nucleic acid complex was compared.
Molecule,blood-brain barrier crossing (known) [1],bioavailability (known) [1],"fluorescence expression by cy3 in brain tissue (confocal microscopy) ([2]; FIG. 1, versus group given only methotrexate)","fluorescence expression, day 3 versus day 1 ([2]; all brain tissue regions)",distribution of fluorescence expression among brain regions ([2]; day 1),distribution of fluorescence expression among brain regions ([2]; day 3)
O=C(O)CCCc1ccc(N(CCCl)CCCl)cc1 [Chlorambucil],incapable of crossing the blood-brain barrier,–,–,–,–,–
CN(Cc1cnc2nc(N)nc(N)c2n1)c1ccc(C(=O)N[C@@H](CCC(=O)O)C(=O)O)cc1 [Methotrexate],known to cross the blood-brain barrier,very low bioavailability,–,–,–,–
POLIGO ™_1 (chain 1 ATGATTCTGCCCTCC; chain 2 TACTAAGACGGGAGG; chemistry not given here; one strand is listed 3' to 5'),–,–,high fluorescence expression compared to the group administered only with methotrexate,higher on day 3 than on day 1 in all brain tissue regions,higher in the midbrain and cerebellum; also recorded: high in the midbrain and cerebellum,the fluorescence spread to the prefrontal cortex; also recorded: high even in the prefrontal cortex
